Consider 3 molecules from article PMC8864165 (2022).

Square brackets hold non-standard residues; d marks the D form. Ends that are not written are not given here. Ac6c = NC1(C(=O)O)CCCCC1

One test concerns the target S. aureus DnaK (Staphylococcus aureus, UniProt P99110 1-610). Description: FP.
In the next test the target is E. coli DnaK (Escherichia coli, UniProt P0A6Y8 1-638). Description: FP.

B1: peptide 102 (peptide)
peptide: [Ac6c]RPFFPRPYLPLPRPPRPVR-NH2
modifications: N-terminus assumed
SMILES: CC(C)C[C@H](NC(=O)[C@H](Cc1ccc(O)cc1)NC(=O)[C@@H]1CCCN1C(=O)[C@H](CCCNC(=N)N)NC(=O)[C@@H]1CCCN1C(=O)[C@H](Cc1ccccc1)NC(=O)[C@H](Cc1ccccc1)NC(=O)[C@@H]1CCCN1C(=O)[C@H](CCCNC(=N)N)NC(=O)C1(N)CCCCC1)C(=O)N1CCC[C@H]1C(=O)N[C@@H](CC(C)C)C(=O)N1CCC[C@H]1C(=O)N[C@@H](CCCNC(=N)N)C(=O)N1CCC[C@H]1C(=O)N1CCC[C@H]1C(=O)N[C@@H](CCCNC(=N)N)C(=O)N1CCC[C@H]1C(=O)N[C@H](C(=O)N[C@@H](CCCNC(=N)N)C(N)=O)C(C)C
On to B1, for which the inhibitory constant (Ki) (usually the dissociation constant of the complex between target and ligand, obtained from inhibition or displacement) is 4200 nM with S. aureus DnaK and 310 nM with E. coli DnaK.

B2: ARV-1502 (peptide)
peptide: [Ac6c]RPDKPRPYLPRPRPPRPVR-NH2
modifications: N-terminus assumed
SMILES: CC(C)C[C@H](NC(=O)[C@H](Cc1ccc(O)cc1)NC(=O)[C@@H]1CCCN1C(=O)[C@H](CCCNC(=N)N)NC(=O)[C@@H]1CCCN1C(=O)[C@H](CCCCN)NC(=O)[C@H](CC(=O)O)NC(=O)[C@@H]1CCCN1C(=O)[C@H](CCCNC(=N)N)NC(=O)C1(N)CCCCC1)C(=O)N1CCC[C@H]1C(=O)N[C@@H](CCCNC(=N)N)C(=O)N1CCC[C@H]1C(=O)N[C@@H](CCCNC(=N)N)C(=O)N1CCC[C@H]1C(=O)N1CCC[C@H]1C(=O)N[C@@H](CCCNC(=N)N)C(=O)N1CCC[C@H]1C(=O)N[C@H](C(=O)N[C@@H](CCCNC(=N)N)C(N)=O)C(C)C
On to B2, for which the inhibition constant Ki turned out to be 13700 nM with S. aureus DnaK and 400 nM with E. coli DnaK.

B3: peptide #2 (peptide)
chain: [Ac6c]RPKKPRPYLPRPRPPRPVR-NH2
modifications: N-terminus assumed
SMILES: CC(C)C[C@H](NC(=O)[C@H](Cc1ccc(O)cc1)NC(=O)[C@@H]1CCCN1C(=O)[C@H](CCCNC(=N)N)NC(=O)[C@@H]1CCCN1C(=O)[C@H](CCCCN)NC(=O)[C@H](CCCCN)NC(=O)[C@@H]1CCCN1C(=O)[C@H](CCCNC(=N)N)NC(=O)C1(N)CCCCC1)C(=O)N1CCC[C@H]1C(=O)N[C@@H](CCCNC(=N)N)C(=O)N1CCC[C@H]1C(=O)N[C@@H](CCCNC(=N)N)C(=O)N1CCC[C@H]1C(=O)N1CCC[C@H]1C(=O)N[C@@H](CCCNC(=N)N)C(=O)N1CCC[C@H]1C(=O)N[C@H](C(=O)N[C@@H](CCCNC(=N)N)C(N)=O)C(C)C
On to B3, for which the inhibition constant Ki in the test with E. coli DnaK is 600 nM.
